Measurements reported in publication PMC10975748.

Target: voltage-gated potassium channel Kv1.3 (UniProt P22001)
Sequence (P22001 whole entry): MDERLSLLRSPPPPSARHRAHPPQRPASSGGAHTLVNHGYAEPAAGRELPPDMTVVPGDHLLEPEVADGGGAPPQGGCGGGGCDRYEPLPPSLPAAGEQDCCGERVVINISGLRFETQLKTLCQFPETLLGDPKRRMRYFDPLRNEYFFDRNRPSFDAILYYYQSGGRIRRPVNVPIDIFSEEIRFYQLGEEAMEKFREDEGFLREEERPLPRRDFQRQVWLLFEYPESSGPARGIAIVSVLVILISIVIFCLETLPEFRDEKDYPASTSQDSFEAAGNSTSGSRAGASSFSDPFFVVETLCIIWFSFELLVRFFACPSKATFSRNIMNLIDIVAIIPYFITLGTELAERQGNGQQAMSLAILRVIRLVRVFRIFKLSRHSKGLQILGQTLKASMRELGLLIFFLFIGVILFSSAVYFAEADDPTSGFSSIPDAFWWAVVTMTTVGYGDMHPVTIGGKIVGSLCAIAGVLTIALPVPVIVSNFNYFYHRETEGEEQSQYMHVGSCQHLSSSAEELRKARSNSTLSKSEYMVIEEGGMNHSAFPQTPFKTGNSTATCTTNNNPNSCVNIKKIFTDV

Q: For mCherry-Vm24, which Kd from electrophysiological assays is on record?
A: 275 pM
